Data reported in PMC11626169.

T1: GST-HY5 (Arabidopsis thaliana, UniProt O24646 1-168)
T1 sequence: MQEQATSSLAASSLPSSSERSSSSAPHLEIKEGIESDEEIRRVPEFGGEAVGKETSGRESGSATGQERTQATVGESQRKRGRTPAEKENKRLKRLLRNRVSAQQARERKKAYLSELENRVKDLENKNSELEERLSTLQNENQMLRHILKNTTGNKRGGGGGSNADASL

B1: NST3 promoter Probe 2 (dsDNA)
DNA 1: AATTAACATGGTAGAATGTAGATGACGTAGATCATGAAACGAGTGTGTGA
DNA 2: TCACACACTCGTTTCATGATCTACGTCATCTACATTCTACCATGTTAATT
B2: NST3 promoter Probe 1 (dsDNA)
DNA 1: CATGACATTACACGTCAAAAGAAATATGTCTTACGTCAGAACTTACGTAT
DNA 2: ATACGTAAGTTCTGACGTAAGACATATTTCTTTTGACGTGTAATGTCATG

Biological target: T1, GST-HY5
Assay: EMSA

| Binder | binding result |
| --- | --- |
| B1 | binds |
| B2 | binds |
